Consider three molecules from paper PMC11950852, “Diversity Scale of Library Matters: Impact of mRNA Library Diversity Scales on the Discovery of Macrocyclic Peptides Targeting a Protein by the RaPID System” (ACS Central Science, 2025).

One may read the Kd as the constant that tells how readily two partners part at equilibrium. Read a high Kd as a looser complex.

Bridges are numbered along the chain shown (N, C = ends).

Sequences and labels used below:
B1: macrocyclic peptide 10-6 (peptide)
chain: {CH2CO}-YWWYYWYRDEYLWRTRCG-NH2
modifications: thioether N-17
SMILES: CC(C)C[C@@H]1NC(=O)[C@H](Cc2ccc(O)cc2)NC(=O)[C@H](CCC(=O)O)NC(=O)[C@H](CC(=O)O)NC(=O)[C@H](CCCNC(=N)N)NC(=O)[C@H](Cc2ccc(O)cc2)NC(=O)[C@H](Cc2c[nH]c3ccccc23)NC(=O)[C@H](Cc2ccc(O)cc2)NC(=O)[C@H](Cc2ccc(O)cc2)NC(=O)[C@H](Cc2c[nH]c3ccccc23)NC(=O)[C@H](Cc2c[nH]c3ccccc23)NC(=O)[C@H](Cc2ccc(O)cc2)NC(=O)CSC[C@@H](C(=O)NCC(N)=O)NC(=O)[C@H](CCCNC(=N)N)NC(=O)[C@H]([C@@H](C)O)NC(=O)[C@H](CCCNC(=N)N)NC(=O)[C@H](Cc2c[nH]c3ccccc23)NC1=O
B2: macrocyclic peptide 10-2 (peptide)
chain: {CH2CO}-YWYYTFDGRWKEYGAACG-NH2
modifications: thioether N-17
SMILES: C[C@@H]1NC(=O)CNC(=O)[C@H](Cc2ccc(O)cc2)NC(=O)[C@H](CCC(=O)O)NC(=O)[C@H](CCCCN)NC(=O)[C@H](Cc2c[nH]c3ccccc23)NC(=O)[C@H](CCCNC(=N)N)NC(=O)CNC(=O)[C@H](CC(=O)O)NC(=O)[C@H](Cc2ccccc2)NC(=O)[C@H]([C@@H](C)O)NC(=O)[C@H](Cc2ccc(O)cc2)NC(=O)[C@H](Cc2ccc(O)cc2)NC(=O)[C@H](Cc2c[nH]c3ccccc23)NC(=O)[C@H](Cc2ccc(O)cc2)NC(=O)CSC[C@@H](C(=O)NCC(N)=O)NC(=O)[C@H](C)NC1=O

The target of the assay is T1, ectodomain of MET (hepatocyte growth factor receptor) fused to Fc (UniProt P08581 25-932).
T1 construct: MET, hepatocyte growth factor receptor, a receptor tyrosine kinase; ectodomain; also called MET-Fc; Fc-tagged MET
Nature of the assay: SPR; macrocyclic peptides on MET; concentration-dependent sensorgrams fitted by a 1:1 binding model. Particulars: both partners purified.
Consider {CH2CO}-YIEWNRFNSKLWNCNCCG-NH2 (thioether N-17; cysteine pairing not given here) [macrocyclic peptide 10-4], for which the Kd came to 308 nM.

With B1, the Kd came to 219 nM.

For B2, the dissociation constant Kd was found to be 31 nM.
